Results from article PMC10075959 (Science Advances, 2023).
Like-named read-outs stand apart in the source and are kept apart here.

Experiments:
AUC [1] = target: the molecule itself; assay: AUC
AUC [2] = target: the molecule itself; assay: AUC; remark: listed apart in the source

Protein | binding result (AUC [1]) | binding result (AUC [2])
MAGNGCDAALALLLLDRLNQLESKMSGKGQQQQGQTV [NLRS:G215C peptide, listing 1 of 2 here] | binds | 
MAGNGSDAALALLLLDRLNQLESKMSGKGQQQQGQTV [NLRS:G215S peptide, listing 1 of 2 here] |  | binds
MAGNGCDAALALLLLDRLNQLESKMSGKGQQQQGQTV [NLRS:G215C peptide, listing 2 of 2 here] |  | binds
MAGNGCDAALALMLLDRLNQLESKMSGKGQQQQGQTV [NLRS:L222M/G215C double mutant peptide] |  | binds
MAGNGSDAALALLLLDRLNQLESKMSGKGQQQQGQTV [NLRS:G215S peptide, listing 2 of 2 here] | binds | 
MAGNGGDAALALMLLDRLNQLESKMSGKGQQQQGQTV [NLRS:L222M peptide] |  | binds
